This test deals with biotinylated DNP-Ab (anti-DNP antibody modified with biotinamidocaproate N-hydroxysuccinimide ester). Put plainly: quartz crystal microbalance; avidin injected onto biotinylated DNP-Ab held on the dinitrosalicylic acid antigen monolayer.

Turning to avidin (from UniProt P02701 25-152), the crystal frequency change Δf was -120 Hz.

Source of the values: patent US7135295.
